In patent US20110243926A1 (published 2011):

T1: soluble E-selectin (control protein) (UniProt P16581 22-556, limits assumed)
T1 sequence (looked up): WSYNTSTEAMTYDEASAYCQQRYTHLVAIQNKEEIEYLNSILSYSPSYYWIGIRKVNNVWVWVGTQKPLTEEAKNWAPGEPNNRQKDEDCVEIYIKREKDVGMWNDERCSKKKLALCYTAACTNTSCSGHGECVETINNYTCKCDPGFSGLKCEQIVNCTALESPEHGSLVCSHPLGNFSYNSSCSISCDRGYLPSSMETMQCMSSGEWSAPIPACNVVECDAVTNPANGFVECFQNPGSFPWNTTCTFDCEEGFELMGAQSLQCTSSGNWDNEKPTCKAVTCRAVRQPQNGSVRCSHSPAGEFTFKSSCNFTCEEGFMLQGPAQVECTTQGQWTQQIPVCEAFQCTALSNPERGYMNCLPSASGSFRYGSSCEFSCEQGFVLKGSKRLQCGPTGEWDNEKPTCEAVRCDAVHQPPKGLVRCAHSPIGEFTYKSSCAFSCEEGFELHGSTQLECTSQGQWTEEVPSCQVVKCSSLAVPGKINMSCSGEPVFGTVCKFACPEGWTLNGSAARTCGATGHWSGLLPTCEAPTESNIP

T2: soluble P-selectin (UniProt P16109 42-771, limits assumed)
T2 sequence (looked up): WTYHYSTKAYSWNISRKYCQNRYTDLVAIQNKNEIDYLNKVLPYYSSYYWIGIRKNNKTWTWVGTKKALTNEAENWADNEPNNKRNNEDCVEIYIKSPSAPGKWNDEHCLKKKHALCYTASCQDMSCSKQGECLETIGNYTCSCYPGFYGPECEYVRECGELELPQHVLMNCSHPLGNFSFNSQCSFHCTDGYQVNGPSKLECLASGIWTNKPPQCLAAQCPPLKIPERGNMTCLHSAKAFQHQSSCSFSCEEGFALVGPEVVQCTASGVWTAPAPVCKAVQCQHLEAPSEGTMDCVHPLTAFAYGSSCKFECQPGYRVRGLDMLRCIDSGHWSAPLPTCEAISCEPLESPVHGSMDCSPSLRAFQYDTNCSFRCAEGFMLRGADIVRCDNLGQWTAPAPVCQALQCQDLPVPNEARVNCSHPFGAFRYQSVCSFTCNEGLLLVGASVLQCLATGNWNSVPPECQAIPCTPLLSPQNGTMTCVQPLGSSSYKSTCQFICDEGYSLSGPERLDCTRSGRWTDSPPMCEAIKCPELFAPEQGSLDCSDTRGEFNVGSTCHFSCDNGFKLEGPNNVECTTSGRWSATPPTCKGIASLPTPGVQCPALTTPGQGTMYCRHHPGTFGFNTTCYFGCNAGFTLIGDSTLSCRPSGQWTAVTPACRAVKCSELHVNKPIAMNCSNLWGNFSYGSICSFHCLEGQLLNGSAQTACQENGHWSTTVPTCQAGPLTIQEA


Key:
[1] = biological target: T1, soluble E-selectin (control protein); assay: SPR (Biacore 3000), soluble E-selectin coupled to CM-5 chip, antibody injected
Procedure: (§1) All experiments were performed on a Biacore 3000, at 25° C., using 20 mM MOPS, pH 7.5, 150 mM NaCl, 1.5 mM CaCl₂ and 0.005% Tween-20 as running buffer. Low densities of soluble P-selectin or soluble E-selectin (control protein) were covalently coupled on two different surfaces of a CM-5 chip according to the manufacturer's instructions. The coating density was selected with the aim of achieving a maximum binding response of 100-200 RUs.
(§2) Solutions containing G1aggr and the G1 mouse parental monoclonal antibody were diluted and injected onto the CM-5 chip at a flow rate of 30 μl/min for 4 minutes, followed by 3 min to allow for dissociation, at which time the bound antibody was eluted with a 10 μl injection of 10 mM Acetate pH 4.5, 100 mM NaCl at a flow rate of 10 μl/min. A series of concentrations of both antibodies were injected over the soluble P-selectin and the soluble E-selectin surfaces until saturating binding was observed.
There was no binding observed for either antibody to E-selectin.

[2] = biological target: T2, soluble P-selectin; assay: SPR (Biacore 3000, 25 C), soluble P-selectin coupled to CM-5 chip, antibody as analyte, bivalent analyte model
Procedure: as §1, §2
The data were analyzed using the Biaevaluation software v 4.1. Sensorgrams from the different cycles were overlaid and the data for all curves of one antibody were simultaneously fitted to a Bivalent analyte model (see FIG. 5). The equilibrium affinity was calculated from the on-rates and off-rates obtained from this analysis.

| binding result [1] | Kd [2] | Binder |
| --- | --- | --- |
| no binding | 31.1 nM | humanized G1 antibody design labeled "aggressive" (G1aggr) (antibody, V domains shown, also called humanized G1aggr; humanized antibody G1aggr) VH: QVQLVQSGAEVKKPGASVKVSCKVSGYTFTSYDINWVRQAPGKGLEWMGWIYPGDGSIKYNEKFKGRVTMTVDKSTDTAYMELSSLRSEDTAVYYCARRGEYGNYEGAMDYWGQGTLVTVSS VL: DIQMTQSPSSLSASVGDRVTITCKASQSVDYDGHSYMNWYQQKPGKAPKLLIYAASNLESGVPSRFSGSGSGTDFTLTISSLQPEDFATYYCQQSDENPLTFGGGTKVEIK |
| no binding | 24.4 nM | G1 mouse parental monoclonal antibody (antibody, V domains shown, Mouse monoclonal antibody from a hybridoma; also called murine mAb G1; parental G1 murine antibody) VH: QVQLQQSGPELVKPGALVKISCKASGYTFTSYDINWVKQRPGQGLEWIGWIYPGDGSIKYNEKFKGKATLTVDKSSSTAYMQVSSLTSENSAVYFCARRGEYGNYEGAMDYWGQGTTVTVSS VL: DIVLTQDPASLAVSLGQRATISCKASQSVDYDGHSYMNWYQQKPGQPPKLLIYAASNLESGIPARFSGSGSGTDFTLNIHPVEEEDAATYYCQQSDENPLTFGTGTKLELK |
